In the nanobody polyreactivity screen of Harvey et al. (2022):

Assay: yeast display, Sf9 membrane polyspecificity reagent, FACS + sequencing; frameworks hold sequencing errors
Method in brief: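 A synthetic nanobody library was expressed on Saccharomyces cerevisiae BJ5465 by galactose induction for 36–48 hours. The library was stained for 1 hour at 4 °C with 10% biotinylated, detergent-solubilized Sf9 membrane reagent and enriched with streptavidin microbeads before FACS. Low and high (top ~1%) gates were set on anti-HA fluorescence for expression and streptavidin fluorescence for reagent binding, and each polyreactivity label reflects the gate of origin.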

| Sequence | polyreactivity (PSR sort gate) |
| --- | --- |
| QVQLVESGGGLVQAGGSLRLSCAASGFIFKRYTMGWYRQAPGKERELVAAISANGGRTYYADSVKGRFTISRDNAKNTVYLQMNSLKPEDTAVYYCAATRWDYTLYGYDYWGQGTQVTVSS | high polyreactivity |
| QVQLVESGGGLVQAGGSLRLSCAASGGIFSVYAMGWYRQAPGKERELVAAITTSGGSTYYADSVKGRFTISRDNAKNTVYLQMNSLKPEDTAVYYCAADYPPTFYYWYEEYEYWGQGTQVTVSS | low polyreactivity |
| QVQLVESGGGLVQAGGSLRLSCAASGSTLGVNAMGRYRQAPGKEREFVAAITGRGGNSYYADSVKGRFTISRDNAKNTVYLKMNSLKPEDTAVYYCAAERQPYRTSSYNYWGQGSQVTVSS | high polyreactivity |
| QVQLVESGRGLVQAGGSLRLSCAASGSTFAGYVMGWYRQAPGKERELVAAISGRGGNTYYADSVKGRFTISRDNAKNTVYIQINSLKPADTAVYYCAANLSRRYGYWGQGTQVTVSS | high polyreactivity |
| QVQLVESGGGLLQAGGSLRLSCAASGSIFRRYAMGWYRQATGKERELVAAISRSGSSTYADSVKGRFTISRDNAKNTVYLQMNSLKPEDTAVYYCAASYAFLYYGYDSWGHGTQVTVSS | low polyreactivity |
| QDQLVVSGGGLFQAVGSLRLICAASGIFRSYAMGWYRQAPGKERELVAAITGGASGTYYADSVKGRFTISRDNAKNTVYLQMNSLKPEDTAVYFCAAVNRVYFPFRLQVIYGSWGQGTQVTVSS | high polyreactivity |
| QVQLVESGGGLVQAGGSLRLSCAASVSTFRTNAMGWYRQPPGKEREMVAAITLDGGSTYYADSVKGRFTISRDNEKNTVYLQMNSLKPEDTAVYYCAADVVSVVYLPFVNGGDYWGQGTQVTVSS | low polyreactivity |
| QVQLVESGGGLVQAGGSLRLSCAASGRIFRGYAMGWSRQAPGKERELVAAITSRGGSTYADSVKGRFTISRDNAKNTVYLQMNSLKPEDTAVYYCNAKEGSRYRKYDYWGQGTQVTVSS | low polyreactivity |
| QVQLVESGGGLVQAGGSLRLSCAASGRTFFPYAMGWYRPAPGKERELVAAITRSGSTYYADSVKGRFTISRDNAKNTVYLQMNSLKPEDTAVYYCAADYSPWRSDFDYWGQGTQVTVSS | low polyreactivity |
| QVQLVESGGGLVQAGGSLRLSCAASGYTFRYYAMGWYRQAPGKERELVAAISSSGGNTYYADSVKGRFTISRDNAKNTVYLQMNSLIPEDTAVYYCAARRYQYPGHSLGYYYTDYYWGQGTQVTVSS | low polyreactivity |
| QVQLVESGGGLVQAGGSLRLSCAASGTFFGYAMGWYRQAPGKERELVAAITSGGSTYYADSVKGRFTISRDNAKNTVYLQMNSLKPEDTAVYYCARVYSRWSYRYDYWGQGTQVTVSS | low polyreactivity |
| QVQLVESGGGLVQAGGSLRLSSAASGSIFRGYAMGWYRQAPEKERELVAAISRRGGSTYYADSVKGRFTISRDNAKNTVYLQMNSLKPEDTAVYYCAKDGTGAGTYDYWGLGTQVTVSS | low polyreactivity |
| QVQLVESGGGLVQAGGSLRLSCAASGSIFYNNSKGWYRPAPGKERELVAAISLRGGSTYYADSVKGRFTISRDNAKNTVYLQMNSLKPEDSAVYYCAAVTGARYYPARASRGKFDYWGQGTQVTVSS | high polyreactivity |
| QVQLEESRGGLVQAGGSLRLSCAASGSIFGYNTMGWYRQAPRKERELVAAISKSGGSTYYADSEKGRFTLSRDTEKNTVYLQMNSLKLEDTAVYYCATYAKQLSPYYYWGQGIQVTVSS | high polyreactivity |
| QVQLVESGGGLVQAGGSLRLSCAASGSNISNYVMGWYRQAPWKERELVAAITRRGGRTYYADSVKGRFTISRDYAKNTFYLQMNSLKPEDTAVYYCAKRHVGSRYLFEYWGQGTQVTVSS | low polyreactivity |
| QVQLVESGGGLVQGGGSLRLSCAASGFIFSRYAMGWYRPAPGKERELVAAISRTGSTNYADSVKGRFTISRDNAKNTVYLQMNSLNPEDTAVYYCNARYITFNGYGYGYWEQGTQVTVSS | high polyreactivity |
| QVQLVESGGGLVQAVGSLRLSFAASGFTFGRNSLGWYRQAPGKERELVAAMTSRVGSTYYADSVKGRFTISRDKAKNTLYLQMNSLKPEDTAVYYCAAVKGPERPTTPYDYWGQGTQVTVSS | high polyreactivity |
| QVQLVESGGGLVQAGGSLRLSCAASGRTFYKYVMVWYRQAPGKERELVAAITRSGGRTYYADSVKGRFTISRDNAKNTVYLHMNSLKPEDTAVYYCAAASYSGHGRYDYWGQGTQVTVSS | high polyreactivity |
| QVQLVESGGGLVQAGGSLRLSCAASGRTFTRNAMGWYRQAPGKERELVASITNGVSTNYADSVKGRFTISRDNAKNTVYLQMNSLKPEDTAVYYCNKGPLISYAYRYYQPYDYWGQGTQVTVSS | low polyreactivity |
| QVQLVESGGGLVQAGGSIRLSCAASGSTFWPYAMGWYRQAPGKERELVAAITTSGGITYYADSVKGRFTISRDKAKITVYLQMNSVKPEDTAVYYCAADLSYHGYGYWGQGTQVTVSS | low polyreactivity |
| QVQLVESGGGLVQAGGSLRLSCAASGSTFEYNAMGWYRQAPGKERELVASSTNYADSVKGRFTISRDNAKNTVYLQMNSLKPVDTAVYYCAREQGVNRNHDYWGQGTQLTVSS | low polyreactivity |
| QVQLVESGGGLVQAGGSLRLSCAASGFTFAGYAMGWNRQAPGKERELVAASNRGGSTYYADSVKGRFTSSRDNAKHTVYLQRNSLKPEDTAVYYCAKAQRFYGGRMGYWGQGTQVTVSS | low polyreactivity |

| Sequence | polyreactivity (PSR sort gate) |
| --- | --- |
| QDQLVESGGGLVQAGGSLRLSCAASGSIFYPYAMGWYRQATGKEREFVAGITTRGGSTYYADSVKGRFTISRDNAKNTVYLQMNSLKPVDTAVYYCNAGYYLTLDYWGQGTQVTVSS | high polyreactivity |
| QVQLVESGGGLVQAGGSLRLSCAASGRTSGFNTMGWYRQAPGKERELVAAISFSGGSTYYADSVKGRFTISRDNAKNTGYLQMNSLKPEDTAVYYCAAELERDEEYDYWGQGTQVTVSS | low polyreactivity |
| QVQHVESGGGLVQAGGSLRLSCAASGRIFHRNAMGWYRKAPGKERELVAAISYRSGSTYYADSVKGRFTISRDNEKYTVYLQMNSLKPEDTAVYYCAKVRHIRFHYYYGYQSYYYWGQGTQVTLSS | high polyreactivity |
| QVQLVESGGGLVQAGGSLRLSCAASGSTFSGYAMGWYRQAPGKERELVAAISRRGTSTYYADSVKGRFTISRDNAKNTVYLQMNSLKPEDTAVYYCAARPSGYVIGGYGYWGQGTQVTVSS | high polyreactivity |
| QVQMQESGGGLVQAGGSLRLICAASGTILYSLGMGWYRQATGKRREFVASITWGTTTNYAERVKGRFTISSDNAKNTVYPKIISLKPEVTAVYYCASPPFGDSSFHYWGQGTQVTVSS | low polyreactivity |
| QVQLVESGGGLVQAGGSLRLSCAASGFTFRAYVMGWDRQAPGKERELVASISKRGGNTYYADSVKGRFTISRDNAKNTVYLQMNSLKPEDTAVYYCAVDFFGDRGDYDYWGQGTQVTVSS | high polyreactivity |
| QVQLVESVGGLVQAGGSLRLSCADSGLTFVDYAMGWYRQAPGKERELVAAITSSGGSITYYADSVKGRFTISRDNAKNTVYLQMKSLKPEDTAVYYCNADYGIYTDSFRGPDYESRGQGTQVTVSS | low polyreactivity |
| QVQIVESGGGLVQAGGRLSLTCAASGRIFTAYAMRWYRPAPGKEREFVAAISARGGSTNYADSVKGRFTISRDNAMNTVYLQMNSLKPEDTAVYYCHARFVQWYWIGNVIHIDNDYWGQGSQVTVSS | low polyreactivity |
| QVQLVESGGGLVQAGGSLRLSCAASGRIFPANAMGWYRQAPGKERELVAAIDYDGGSTYYADSVKGRFTISRDNAKNTVYLQMNSLKPEDTAVYYCAADFYDYEGSYYDYYWGQGTQVTVSS | high polyreactivity |
| QVQLVESGGGLVQAGGSLRLSCAASGGIFAPYAMGWYRQAPGKERELVAAISSSDGSTYYADSVKGSFTISRDNAKNTVYLQMNSLKPEDTAVYYCAADYREDYGYWGQGTQVTVSS | low polyreactivity |
| QVQLVESGGGLVQAGGSRRLSCAASGNIFPQNGMGWYRQAPAKERELVAAITRGGSTYYADSVKGRFTISRDNAKNTVYVQMHSLKPEDTAVYDCAAVRPQYRRRTKANPYNYWGQGTQVTVSS | high polyreactivity |
| QVQLVESGGGLVQAGGSLRLSCAASGITVNSYAMGWYRQAPGKERELVAAISGSGSSTYYADSVKGRFTISRDNAKNTVYLQMNSLKPEDTAVYYCAATGFSSWTYYTHEYWGQGTQVTVSS | low polyreactivity |
| QVQLVESGGGLVQAGGSLRLSCAASGFIIRSYAMGWYRQAPGKERELLAAISSRGGSTYYADSVKGRFTISRDNANNTVYLQINSLKPEDTAVYYCAADWKSKRTDKYDSWGQGTQVTVSS | high polyreactivity |
| QVQLVESGGGLVQAGGSLRLSCAASGFTSRANAMGWYRQAPWKESELVAVITAGGGSTSYADSVKGRFTISRDNAKNTVYLQMNSLKPEDTAVYYCASTWYGGPYKSYYYWGQGTQVTVSS | low polyreactivity |
| QVQLVESGGGLVQAGGSLRLSCAASGSTFWYYAMGWYRQAPGKERELVAGITQSGGSTYYADSVKGRFTISRDNEKNTVYLQMNRLKPEDTAVYYCAKDGRVSGDFDYWGQGTQVTVSS | low polyreactivity |
| QVQLVESGGGLVQAGGSLRLSCAASGSISPYYAMGWYRQEHGKEREMVAAISSGGSTYYADSVKGRFTISRDNAKNTVYLQMNSLKPEDTAVYYCAKAYNYLGYYKYLRYGKFCYWGEGTQVTVSS | high polyreactivity |
| QDQLVESGGCLVQAGGSLRLSCAASGSIFTKYAMGWYRQAPGKERELVAAIDVNGGSTRYADSVKGRFTISRDNAKNTVYLQMNSLKPEDTAVYYCAKDYTASYYPQGLYDYWGQGTQVTVSS | low polyreactivity |
| QVQLVESGGGLVQAGGSLRLSCAASGSIFEQYTMGWYRQAPGKERELVAAISYSGGRTYYADSVKGRFTISRDNAKNTVYLQMNSLKPEDTAVYYCATRGRDRRIYGYWGQGTQVTVSS | high polyreactivity |
| QVQLVESGGGLVQAGGSLRLSCAASGRTFRAYGMGWYRQAPGKERELVAVISWRDGSTFYADSVKGRFTISRDNAKNTVYLQMNSLNPEDTAVYYCNTAYYPGNYSQYDYWGQGTQVTVSS | low polyreactivity |
| QVQLVESGGGLVQAGGSLRLSCAASGRIFGKYAMGWYRQAPGKEWELVAAISSSGGSTYYADSVKGRFTISRDNAKNTVYLQMNSLKPEDTAVYYCNAPQYWRRSYREYDYWGQGTQVTVSS | high polyreactivity |
| QVQLVESGVGLVQAGGSLRFSCAASAMGWSRQAPGKERELVAVINSTGGSTYYADSVKGRFTISRDNAKNTVYLQMNSLKPDATAVYYCARVTRRGPGYTTLYSRYDYWGQGTQVSVSS | low polyreactivity |
